Several values for one entry are separate records, joined by “and”; a condition that tells them apart may be missing. Equal entries are not always repeated.
What was measured:
[1] = biological target: T1, hOGG1 wild type;c-Myc;Max (human;human?;human?) (UniProt O15527+P01106); assay: AFM (QD-Myc); settings: FP at 25°C with 5 nM labelled DNA, EMSA room temp 30 min, 15% native PAGE 0.5x TBE 4°C, interaction buffer 20 mM Tris-HCl pH 7.6, 200 mM NaCl (Fig. S12) …
[2] = biological target: T2, hOGG1 wild type;c-Myc (human;human?) (UniProt O15527+P01106); assay: AFM; settings: 30 nM Myc, 8-oxoguanine at ~50% (49.8%) of length, FP at 25°C with 5 nM labelled DNA, EMSA room temp 30 min, 15% native PAGE 0.5x TBE 4°C, interaction buffer 20 mM Tris-HCl pH 7.6, 200 mM NaCl (Fig. S12) …
T2 sequence (O15527 whole entry, chain 1 of 2): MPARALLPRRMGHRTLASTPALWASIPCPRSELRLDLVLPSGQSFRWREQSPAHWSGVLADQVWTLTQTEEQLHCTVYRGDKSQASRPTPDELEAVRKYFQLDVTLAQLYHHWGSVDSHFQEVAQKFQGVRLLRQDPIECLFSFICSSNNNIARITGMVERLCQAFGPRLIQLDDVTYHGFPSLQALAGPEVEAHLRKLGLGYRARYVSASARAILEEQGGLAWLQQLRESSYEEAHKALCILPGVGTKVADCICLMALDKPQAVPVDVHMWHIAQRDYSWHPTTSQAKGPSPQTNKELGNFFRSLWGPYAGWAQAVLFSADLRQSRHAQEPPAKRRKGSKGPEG
T2 sequence (P01106 16-454, chain 2 of 2): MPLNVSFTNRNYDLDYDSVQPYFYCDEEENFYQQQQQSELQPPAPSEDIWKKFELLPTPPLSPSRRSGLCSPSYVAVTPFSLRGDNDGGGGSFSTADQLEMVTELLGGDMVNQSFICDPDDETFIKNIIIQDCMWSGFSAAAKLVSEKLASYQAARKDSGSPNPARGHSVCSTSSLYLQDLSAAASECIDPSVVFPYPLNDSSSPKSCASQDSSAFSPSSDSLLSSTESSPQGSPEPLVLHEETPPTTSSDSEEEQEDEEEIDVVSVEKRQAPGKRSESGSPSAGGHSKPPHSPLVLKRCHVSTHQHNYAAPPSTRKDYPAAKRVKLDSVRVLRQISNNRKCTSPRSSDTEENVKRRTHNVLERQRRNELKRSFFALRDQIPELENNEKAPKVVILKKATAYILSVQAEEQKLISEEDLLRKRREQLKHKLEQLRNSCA

[3] = biological target: hOGG1 K249Q K249Q (human) (UniProt O15527); assay: AFM; settings: 8-oxoguanine at ~50% (49.8%) of length, FP at 25°C with 5 nM labelled DNA, EMSA room temp 30 min, 15% native PAGE 0.5x TBE 4°C
Sequence of hOGG1 K249Q K249Q (human) (O15527 whole entry K249Q): as the sequence (O15527 whole entry, chain 1 of 2) above, with K249Q counted along it

hOGG1 C28A C28A (human) = hOGG1 C28A C28A (human) (UniProt O15527); assay: AFM; settings: oxidising; specificity 779 ± 471; 8-oxoguanine at ~50% (49.8%) of length; FP at 25°C with 5 nM labelled DNA; EMSA room temp 30 min, 15% native PAGE 0.5x TBE 4°C; interaction buffer 20 mM Tris-HCl pH 7.6, 200 mM NaCl (Fig. S12); reduci
Sequence of hOGG1 C28A C28A (human) (O15527 whole entry C28A): as the sequence (O15527 whole entry, chain 1 of 2) above, with C28A counted along it

[4] = biological target: hOGG1 C28A;c-Myc C28A (human;human?) (UniProt O15527+P01106); assay: AFM; settings: 8-oxoguanine at ~50% (49.8%) of length; FP at 25°C with 5 nM labelled DNA; EMSA room temp 30 min, 15% native PAGE 0.5x TBE 4°C; interaction buffer 20 mM Tris-HCl pH 7.6, 200 mM NaCl (Fig. S12) …
Sequence of hOGG1 C28A;c-Myc C28A (human;human?) (O15527 whole entry C28A, chain 1 of 2): as the sequence (O15527 whole entry, chain 1 of 2) above, with C28A counted along it
Sequence of hOGG1 C28A;c-Myc C28A (human;human?) (P01106 16-454, chain 2 of 2): as the sequence (P01106 16-454, chain 2 of 2) above

[5] = biological target: T1, hOGG1 wild type;c-Myc;Max (human;human?;human?); assay: AFM; settings: 8-oxoguanine at ~50% (49.8%) of length, FP at 25°C with 5 nM labelled DNA, EMSA room temp 30 min, 15% native PAGE 0.5x TBE 4°C
[6] = biological target: hOGG1 K249Q;c-Myc K249Q (human;human?) (UniProt O15527+P01106); assay: AFM; settings: 8-oxoguanine at ~50% (49.8%) of length, FP at 25°C with 5 nM labelled DNA, EMSA room temp 30 min, 15% native PAGE 0.5x TBE 4°C
Sequence of hOGG1 K249Q;c-Myc K249Q (human;human?) (O15527 whole entry K249Q, chain 1 of 2): as the sequence (O15527 whole entry, chain 1 of 2) above, with K249Q counted along it
Sequence of hOGG1 K249Q;c-Myc K249Q (human;human?) (P01106 16-454, chain 2 of 2): as the sequence (P01106 16-454, chain 2 of 2) above

[7] = biological target: hOGG1 K249Q;c-Myc;Max K249Q (human;human?;human?) (UniProt O15527+P01106); assay: AFM (QD-Myc); settings: 8-oxoguanine 8 bp upstream of E-box, ~50% of length; FP at 25°C with 5 nM labelled DNA; EMSA room temp 30 min, 15% native PAGE 0.5x TBE 4°C; interaction buffer 20 mM Tris-HCl pH 7.6, 200 mM NaCl (Fig. S12) …
Sequence of hOGG1 K249Q;c-Myc;Max K249Q (human;human?;human?) (P01106 whole entry, looked up, chain 1 of 2): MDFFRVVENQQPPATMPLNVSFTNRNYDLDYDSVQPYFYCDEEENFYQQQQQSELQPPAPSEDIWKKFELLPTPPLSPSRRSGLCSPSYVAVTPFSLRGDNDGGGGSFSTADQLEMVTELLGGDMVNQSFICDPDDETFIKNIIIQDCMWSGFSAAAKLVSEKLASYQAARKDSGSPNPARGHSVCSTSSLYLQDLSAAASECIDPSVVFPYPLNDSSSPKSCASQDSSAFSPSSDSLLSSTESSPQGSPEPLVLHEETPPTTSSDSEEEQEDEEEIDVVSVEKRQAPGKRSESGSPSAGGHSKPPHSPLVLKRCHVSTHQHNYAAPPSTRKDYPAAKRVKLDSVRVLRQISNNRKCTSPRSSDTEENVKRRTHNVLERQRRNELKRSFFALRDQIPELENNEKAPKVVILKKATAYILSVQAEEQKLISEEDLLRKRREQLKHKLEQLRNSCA
Sequence of hOGG1 K249Q;c-Myc;Max K249Q (human;human?;human?) (O15527 whole entry, looked up, stated change not applied, chain 2 of 2): as the sequence (O15527 whole entry, chain 1 of 2) above

c-Myc;Max = c-Myc;Max (UniProt P01106); assay: AFM (QD-Myc); settings: 8-oxoguanine 8 bp upstream of E-box, ~50% of length; FP at 25°C with 5 nM labelled DNA; EMSA room temp 30 min, 15% native PAGE 0.5x TBE 4°C; interaction buffer 20 mM Tris-HCl pH 7.6, 200 mM NaCl (Fig. S12) …
Sequence of c-Myc;Max (P01106 whole entry, looked up): as the sequence (P01106 whole entry, looked up, chain 1 of 2) above

[8] = biological target: T2, hOGG1 wild type;c-Myc (human;human?); assay: AFM (QD-Myc); settings: 8-oxoguanine 8 bp upstream of E-box, ~50% of length; FP at 25°C with 5 nM labelled DNA; EMSA room temp 30 min, 15% native PAGE 0.5x TBE 4°C; interaction buffer 20 mM Tris-HCl pH 7.6, 200 mM NaCl (Fig. S12) …
[9] = biological target: hOGG1 C28A;c-Myc;Max C28A (human;human?;human?) (UniProt O15527+P01106); assay: AFM (QD-Myc); settings: 8-oxoguanine 8 bp upstream of E-box, ~50% of length; FP at 25°C with 5 nM labelled DNA; EMSA room temp 30 min, 15% native PAGE 0.5x TBE 4°C; interaction buffer 20 mM Tris-HCl pH 7.6, 200 mM NaCl (Fig. S12) …
Sequence of hOGG1 C28A;c-Myc;Max C28A (human;human?;human?) (P01106 whole entry, looked up, chain 1 of 2): as above
Sequence of hOGG1 C28A;c-Myc;Max C28A (human;human?;human?) (O15527 whole entry, looked up, stated change not applied, chain 2 of 2): as the sequence (O15527 whole entry, chain 1 of 2) above

T1 sequence (P01106 whole entry, looked up, chain 1 of 2): as the sequence (P01106 whole entry, looked up, chain 1 of 2) above
T1 sequence (O15527 whole entry, looked up, chain 2 of 2): as the sequence (O15527 whole entry, chain 1 of 2) above

## E-box AFM substrate
[1]
  binding signal: 0.11 Myc/DNA

## oxoG 505 bp AFM substrate
[1]; 8-oxoguanine at ~50% (49.8%) of length
  binding signal: 0.15 Myc/DNA and 0.06 Myc/DNA
[2]; oxidising, specificity 423 ± 155
  binding signal (counts/DNA at oxoG): 0.17
[2]; reducing, specificity 517 ± 161
  binding signal (counts/DNA at oxoG): 0.17
[3]; oxidising, specificity 294 ± 139, interaction buffer 20 mM Tris-HCl pH 7.6, 200 mM NaCl (Fig. S12), reduci
  binding signal (counts/DNA at oxoG): 0.09
[3]; reducing, specificity 468 ± 197, interaction buffer 20 mM Tris-HCl pH 7.6, 200 mM NaCl (Fig. S12) …
  binding signal (counts/DNA at oxoG): 0.18
hOGG1 C28A C28A (human)
  binding signal (counts/DNA at oxoG): 0.14
[4]
  binding signal (counts/DNA at oxoG): 0.14
[5]; oxidising, specificity 421 ± 252, interaction buffer 20 mM Tris-HCl pH 7.6, 200 mM NaCl (Fig. S12), reduci
  binding signal (counts/DNA at oxoG): 0.19
[5]; reducing, specificity 456 ± 289, interaction buffer 20 mM Tris-HCl pH 7.6, 200 mM NaCl (Fig. S12) …
  binding signal (counts/DNA at oxoG): 0.12
[6]; oxidising, specificity 438 ± 217, interaction buffer 20 mM Tris-HCl pH 7.6, 200 mM NaCl (Fig. S12), reduci
  binding signal (counts/DNA at oxoG): 0.1
[6]; reducing, specificity 421 ± 153, interaction buffer 20 mM Tris-HCl pH 7.6, 200 mM NaCl (Fig. S12) …
  binding signal (counts/DNA at oxoG): 0.15

## oxoG-E-box AFM substrate
[7]
  binding signal: 0.29 Myc/DNA and 0.17 Myc/DNA
c-Myc;Max
  binding signal: 0.14 Myc/DNA and 0.12 Myc/DNA
[8]
  binding signal: 0.12 Myc/DNA and 0.08 Myc/DNA
[1]; 8-oxoguanine 8 bp upstream of E-box, ~50% of length
  binding signal: 0.29 Myc/DNA and 0.17 Myc/DNA
[9]
  binding signal: 0.16 Myc/DNA

Reference: paper PMC9561264
